Experimental data reported in paper PMC10785194.

Columns and labels:
Settings in all cases: control: untreated
[1] = immunofluorescence, nuclear AR, C4-2B
[2] = CHX chase, AR protein stability by immunoblot
immunoblot, C4-2B = test: immunoblot, C4-2B

Row | Protein | localisation_or_trafficking ([1]; glycan lost) | degradation_or_half_life ([2]; glycan lost) | other: AR S81 phosphorylation (immunoblot, C4-2B; glycan lost) | localisation_or_trafficking ([1]; glycan gained) | degradation_or_half_life ([2]; glycan gained) | other: AR S81 phosphorylation (immunoblot, C4-2B; glycan gained)
1 | androgen receptor (AR): OSMI-1 (protein) parent chain: MEVQLGLGRVYPRPPSKTYRGAFQNLFQSVREVIQNPGPRHPEAASAAPPGASLLLLQQQQQQQQQQQQQQQQQQQQQQQETSPRQQQQQQGEDGSPQAHRRGPTGYLVLDEEQQPSQPQSALECHPERGCVPEPGAAVAASKGLPQQLPAPPDEDDSAAPSTLSLLGPTFPGLSSCSADLKDILSEASTMQLLQQQQQEAVSEGSSSGRAREASGAPTSSKDNYLGGTSTISDNAKELCKAVSVSMGLGVEALEHLSPGEQLRGDCMYAPLLGVPPAVRPTPCAPLAECKGSLLDDSAGKSTEDTAEYSPFKGGYTKGLEGESLGCSGSAAAGSSGTLELPSTLSLYKSGALDEAAAYQSRDYYNFPLALAGPPPPPPPPHPHARIKLENPLDYGSAWAAAAAQCRYGDLASLHGAGAAGPGSGSPSAAASSSWHTLFTAEEGQLYGPCGGGGGGGGGGGGGGGGGGGGGGGEAGAVAPYGYTRPPQGLAGQESDFTAPDVWYPGGMVSRVPYPSPTCVKSEMGPWMDSYSGPYGDMRLETARDHVLPIDYYFPPQKTCLICGDEASGCHYGALTCGSCKVFFKRAAEGKQKYLCASRNDCTIDKFRRKNCPSCRLRKCYEAGMTLGARKLKKLGNLKLQEEGEASSTTSPTEETTQKLTVSHIEGYECQPIFLNVLEAIEPGVVCAGHDNNQPDSFAALLSSLNELGERQLVHVVKWAKALPGFRNLHVDDQMAVIQYSWMGLMVFAMGWRSFTNVNSRMLYFAPDLVFNEYRMHKSRMYSQCVRMRHLSQEFGWLQITPQEFLCMKALLLFSIIPVDGLKNQKFFDELRMNYIKELDRIIACKRKNPTSCSRRFYQLTKLLDSVQPIARELHQFTFDLLIKSHMVSVDFPEMMAEIISVQVPKILSGKVKPIYFHTQ | increases | increases | increases |  |  | 
2 | androgen receptor (AR): Thiamet G (protein) parent chain: MEVQLGLGRVYPRPPSKTYRGAFQNLFQSVREVIQNPGPRHPEAASAAPPGASLLLLQQQQQQQQQQQQQQQQQQQQQQQETSPRQQQQQQGEDGSPQAHRRGPTGYLVLDEEQQPSQPQSALECHPERGCVPEPGAAVAASKGLPQQLPAPPDEDDSAAPSTLSLLGPTFPGLSSCSADLKDILSEASTMQLLQQQQQEAVSEGSSSGRAREASGAPTSSKDNYLGGTSTISDNAKELCKAVSVSMGLGVEALEHLSPGEQLRGDCMYAPLLGVPPAVRPTPCAPLAECKGSLLDDSAGKSTEDTAEYSPFKGGYTKGLEGESLGCSGSAAAGSSGTLELPSTLSLYKSGALDEAAAYQSRDYYNFPLALAGPPPPPPPPHPHARIKLENPLDYGSAWAAAAAQCRYGDLASLHGAGAAGPGSGSPSAAASSSWHTLFTAEEGQLYGPCGGGGGGGGGGGGGGGGGGGGGGGEAGAVAPYGYTRPPQGLAGQESDFTAPDVWYPGGMVSRVPYPSPTCVKSEMGPWMDSYSGPYGDMRLETARDHVLPIDYYFPPQKTCLICGDEASGCHYGALTCGSCKVFFKRAAEGKQKYLCASRNDCTIDKFRRKNCPSCRLRKCYEAGMTLGARKLKKLGNLKLQEEGEASSTTSPTEETTQKLTVSHIEGYECQPIFLNVLEAIEPGVVCAGHDNNQPDSFAALLSSLNELGERQLVHVVKWAKALPGFRNLHVDDQMAVIQYSWMGLMVFAMGWRSFTNVNSRMLYFAPDLVFNEYRMHKSRMYSQCVRMRHLSQEFGWLQITPQEFLCMKALLLFSIIPVDGLKNQKFFDELRMNYIKELDRIIACKRKNPTSCSRRFYQLTKLLDSVQPIARELHQFTFDLLIKSHMVSVDFPEMMAEIISVQVPKILSGKVKPIYFHTQ |  |  |  | decreases | decreases | decreases
